Positions count from the first letter of the chain named. Read-outs that look alike come from different tables or passages of the source.

We go through 22 molecules from article PMC2756145.

One data set addresses T1, Pot1-DBD_V97A (Schizosaccharomyces pombe, UniProt O13988 1-389, V97A).
T1 sequence: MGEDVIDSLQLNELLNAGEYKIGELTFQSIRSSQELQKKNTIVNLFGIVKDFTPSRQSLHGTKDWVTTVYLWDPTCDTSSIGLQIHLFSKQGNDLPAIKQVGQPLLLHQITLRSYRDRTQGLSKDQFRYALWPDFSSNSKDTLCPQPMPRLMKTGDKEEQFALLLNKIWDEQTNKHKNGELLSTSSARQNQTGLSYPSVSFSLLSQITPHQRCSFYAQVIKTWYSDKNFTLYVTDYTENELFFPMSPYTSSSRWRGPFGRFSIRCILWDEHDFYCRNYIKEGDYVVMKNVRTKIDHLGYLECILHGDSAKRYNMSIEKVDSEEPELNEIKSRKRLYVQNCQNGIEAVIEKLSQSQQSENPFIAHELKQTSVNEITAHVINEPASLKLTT
The data set is described as follows: filter binding.

In the next data set the target is T2, Pot1-DBD_Q91A (Schizosaccharomyces pombe, UniProt O13988 1-389, Q91A).
T2 sequence: T1 sequence with Q91A, A97V
As to the kind of experiment: filter binding.

Data set [1] addresses T3, Pot1pC (Schizosaccharomyces pombe, UniProt O13988 178-389).
T3 sequence: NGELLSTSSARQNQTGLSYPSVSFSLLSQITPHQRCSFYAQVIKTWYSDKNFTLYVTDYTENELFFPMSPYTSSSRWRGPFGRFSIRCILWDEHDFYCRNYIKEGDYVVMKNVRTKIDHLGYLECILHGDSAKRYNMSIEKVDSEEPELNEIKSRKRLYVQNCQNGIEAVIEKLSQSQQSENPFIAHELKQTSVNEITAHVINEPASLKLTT
The data set is described as follows: EMSA.

In data set [2] the target is T3, Pot1pC. The data set is described as follows: EMSA. This is another data set of the same source.
The next data set has as its target T4, Pot1-DBD (Schizosaccharomyces pombe, UniProt O13988 1-389).
T4 sequence: T1 sequence with A97V
As to the kind of experiment: filter binding.

In another data set the target is T5, Pot1pN_S123A (Schizosaccharomyces pombe, UniProt O13988 1-185, S123A).
T5 sequence: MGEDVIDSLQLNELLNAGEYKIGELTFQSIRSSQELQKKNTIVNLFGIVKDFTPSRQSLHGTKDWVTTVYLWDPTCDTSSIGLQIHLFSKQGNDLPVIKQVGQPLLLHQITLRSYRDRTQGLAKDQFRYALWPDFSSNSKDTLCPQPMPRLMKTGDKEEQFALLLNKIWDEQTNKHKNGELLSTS
The data set is described as follows: filter binding.

A further data set addresses T6, Pot1pN_Y115A (Schizosaccharomyces pombe, UniProt O13988 1-185, Y115A).
T6 sequence: T5 sequence with Y115A, A123S
The data set is described as follows: filter binding.

A further data set concerns the target T7, Pot1pN_T62A (Schizosaccharomyces pombe, UniProt O13988 1-185, T62A).
T7 sequence: T5 sequence with T62A, A123S
The data set is described as follows: filter binding.

The target in a further data set is T8, Pot1pN (Schizosaccharomyces pombe, UniProt O13988 1-185).
T8 sequence: T5 sequence with A123S
As to the kind of experiment: filter binding.

The target of another data set is T9, Pot1pN_D64A (Schizosaccharomyces pombe, UniProt O13988 1-185, D64A).
T9 sequence: T5 sequence with D64A, A123S
The data set is described as follows: filter binding.

Take GGTTACGGTTACGGTTACGGTTAC (ssDNA) [24mer]: the Kd is 0.06 ± 0.004 nM in the data set with Pot1-DBD_V97A and 0.06 ± 0.003 nM in the data set with Pot1-DBD_Q91A.

On to GGTTACGG (ssDNA) [8mer-3'], for which, in the data set with Pot1pC [1], the affinity, expressed as Kd, was 1900 ± 300 nM.

CGGTTAC (ssDNA) [7mer-5'] came in with a Kd with Pot1pC [2] of 35000 ± 8000 nM.

CGTTACGGT (ssDNA) [9mer_G1C] came in with a Kd in the data set with Pot1pC [1] of 1000 ± 100 nM.

GGTTTCGGTTAC (ssDNA) [12mer_A5T] registered a Kd in the data set with Pot1-DBD_V97A of 50 ± 4 nM.

Turning to GGTTACGGTTACGGT (ssDNA) [15mer], the Kd in the data set with Pot1-DBD_V97A worked out at 0.04 ± 0.004 nM; in the data set with Pot1-DBD_Q91A, 0.04 ± 0.003 nM. The binding result with Pot1-DBD was “binds”.

As to CCAATGCCCAATGC (ssDNA) [C-rich complementary sequence], in the data set with Pot1pC [1], the binding result is listed as “no binding”.

In the data set with Pot1pC [1], GCTTACGGT (ssDNA) [9mer_G2C] had a Kd of 3000 ± 600 nM.

In turn, GGTTACGGTTA (ssDNA) [11mer-3'] returned a Kd with Pot1pC [1] of 600 ± 100 nM.

For the molecule GGTAACGGT (ssDNA) [9mer_T4A], binding with Pot1pC [1] was put at a Kd of 700 ± 300 nM.

In the data set with Pot1-DBD_V97A, GGTTAGGGTTAC (ssDNA) [12mer_C6G] yielded an equilibrium dissociation constant (Kd) of 100 ± 10 nM.

GGTTACG (ssDNA) [7mer-3'] returned a Kd with Pot1pC [2] of 10500 ± 1900 nM.

GGTTACGGTT (ssDNA) [10mer-3'] had a Kd in the data set with Pot1pC [1] of 300 ± 40 nM.

With GGTTAGGGT (ssDNA) [9mer_C6G], in the data set with Pot1pC [1], the Kd was found to be 300 ± 50 nM.

In the data set with Pot1pC [1], GGTTACGGT (ssDNA) [9mer-3'] came in with a Kd of 400 ± 70 nM.

With GGTTACGCT (ssDNA) [9mer_G8C], in the data set with Pot1pC [1], binding was put at a Kd of 800 ± 200 nM.

In the data set with Pot1pC [1], GGATACGGT (ssDNA) [9mer_T3A] yielded a Kd of 600 ± 100 nM.

In turn, GGTTACGGA (ssDNA) [9mer_T9A] displayed a Kd with Pot1pC [1] of 2000 ± 400 nM.

With GGTTACCGT (ssDNA) [9mer_G7C], the Kd in the data set with Pot1pC [1] came to 3000 ± 500 nM.

On to ACGGTTAC (ssDNA) [8mer-5'], for which the Kd with Pot1pC [2] was determined as 15000 ± 2000 nM.

Turning to GGTTAC (ssDNA) [6mer], the Kd with Pot1pN_S123A turned out to be 100 ± 10 nM; with Pot1pN_Y115A, 300 ± 20 nM; in the data set with Pot1pN_T62A, 500 ± 50 nM; with Pot1pN, 30 ± 20 nM; in the data set with Pot1pN_D64A it was 400 ± 30 nM.

For CGTTACGGTTAC (ssDNA) [12mer_G1C], the Kd in the data set with Pot1-DBD_V97A was found to be 70 ± 7 nM; with Pot1-DBD_Q91A, 50 ± 6 nM.
